Test: melting temperature; melt of duplexes
Conditions: sodium 0.0675 M; strand 1 µM

| Substance | Tm [°C] |
| --- | --- |
| CGACGTGCTCGATGTGCTG+CAGCACATGGTGCACGTCG ((((((((.(.((((((((+)))))))).).)))))))) | 49.7 |
| CGACGTGCTCGATGTGCTG+CAGCACATGTAGCACGTCG (((((((((..((((((((+))))))))..))))))))) | 52.3 |
| CGACGTGCTCGATGTGCTG+CAGCACATGTGGCACGTCG ((((((((...((((((((+))))))))...)))))))) | 50.7 |
| CGACGTGCTCGATGTGCTG+CAGCACATGTTGCACGTCG ((((((((...((((((((+))))))))...)))))))) | 49.5 |
| CGACGTGCTCGATGTGCTG+CAGCACATTACGCACGTCG ((((((((...((((((((+))))))))...)))))))) | 48.6 |
| CGACGTGCTCGATGTGCTG+CAGCACATTATGCACGTCG ((((((((...((((((((+))))))))...)))))))) | 49.6 |
| CGACGTGCTCGATGTGCTG+CAGCACATTCAGCACGTCG (((((((((..((((((((+))))))))..))))))))) | 51.9 |
| CGACGTGCTCGATGTGCTG+CAGCACATTGTGCACGTCG ((((((((.(.((((((((+)))))))).).)))))))) | 51.5 |
| CGACGTGCTCTATGTGCTG+CAGCACATAACGCACGTCG ((((((((..(((((((((+)))))))))..)))))))) | 49.7 |
| CGACGTGCTCTATGTGCTG+CAGCACATACAGCACGTCG (((((((((.(((((((((+))))))))).))))))))) | 52.5 |
| CGACGTGCTCTATGTGCTG+CAGCACATACTGCACGTCG ((((((((..(((((((((+)))))))))..)))))))) | 49.5 |
| CGACGTGCTCTATGTGCTG+CAGCACATCAAGCACGTCG (((((((((..((((((((+))))))))..))))))))) | 51.1 |
| CGACGTGCTCTATGTGCTG+CAGCACATCCCGCACGTCG ((((((((...((((((((+))))))))...)))))))) | 47.5 |
| CGACGTGCTCTATGTGCTG+CAGCACATCCGGCACGTCG ((((((((...((((((((+))))))))...)))))))) | 48.4 |
| CGACGTGCTCTATGTGCTG+CAGCACATCCTGCACGTCG ((((((((...((((((((+))))))))...)))))))) | 47.8 |
| CGACGTGCTCTATGTGCTG+CAGCACATCGTGCACGTCG ((((((((.(.((((((((+)))))))).).)))))))) | 45.2 |
| CGACGTGCTCTATGTGCTG+CAGCACATCTCGCACGTCG ((((((((...((((((((+))))))))...)))))))) | 47.1 |
| CGACGTGCTCTATGTGCTG+CAGCACATGATGCACGTCG ((((((((...((((((((+))))))))...)))))))) | 51.1 |
| CGACGTGCTCTATGTGCTG+CAGCACATGCTGCACGTCG ((((((((...((((((((+))))))))...)))))))) | 47 |
| CGACGTGCTCTATGTGCTG+CAGCACATGTAGCACGTCG (((((((((..((((((((+))))))))..))))))))) | 52.3 |
| CGACGTGCTCTATGTGCTG+CAGCACATGTCGCACGTCG ((((((((...((((((((+))))))))...)))))))) | 48.1 |
| CGACGTGCTCTATGTGCTG+CAGCACATGTGGCACGTCG ((((((((...((((((((+))))))))...)))))))) | 50.4 |
| CGACGTGCTCTATGTGCTG+CAGCACATTCTGCACGTCG ((((((((...((((((((+))))))))...)))))))) | 47.8 |
| CGACGTGCTCTATGTGCTG+CAGCACATTGGGCACGTCG ((((((((.(.((((((((+)))))))).).)))))))) | 53.4 |

| Substance | Tm [°C] |
| --- | --- |
| CGACGTGCTCTATGTGCTG+CAGCACATTGTGCACGTCG ((((((((.(.((((((((+)))))))).).)))))))) | 48.3 |
| CGACGTGCTCTATGTGCTG+CAGCACATTTAGCACGTCG (((((((((..((((((((+))))))))..))))))))) | 51 |
| CGACGTGCTCTATGTGCTG+CAGCACATTTCGCACGTCG ((((((((...((((((((+))))))))...)))))))) | 47.3 |
| CGACGTGCTGAATGTGCTG+CAGCACATAACGCACGTCG ((((((((...((((((((+))))))))...)))))))) | 50 |
| CGACGTGCTGAATGTGCTG+CAGCACATAATGCACGTCG ((((((((...((((((((+))))))))...)))))))) | 51 |
| CGACGTGCTGAATGTGCTG+CAGCACATACGGCACGTCG ((((((((.(.((((((((+)))))))).).)))))))) | 54.1 |
| CGACGTGCTGAATGTGCTG+CAGCACATACTGCACGTCG ((((((((.(.((((((((+)))))))).).)))))))) | 53.7 |
| CGACGTGCTGAATGTGCTG+CAGCACATAGAGCACGTCG (((((((((..((((((((+))))))))..))))))))) | 52.2 |
| CGACGTGCTGAATGTGCTG+CAGCACATAGCGCACGTCG ((((((((...((((((((+))))))))...)))))))) | 48.3 |
| CGACGTGCTGAATGTGCTG+CAGCACATATAGCACGTCG (((((((((..((((((((+))))))))..))))))))) | 53.7 |
| CGACGTGCTGAATGTGCTG+CAGCACATCATGCACGTCG ((((((((...((((((((+))))))))...)))))))) | 53.1 |
| CGACGTGCTGAATGTGCTG+CAGCACATCTAGCACGTCG (((((((((..((((((((+))))))))..))))))))) | 53 |
| CGACGTGCTGAATGTGCTG+CAGCACATCTGGCACGTCG ((((((((...((((((((+))))))))...)))))))) | 51.7 |
| CGACGTGCTGAATGTGCTG+CAGCACATGATGCACGTCG ((((((((...((((((((+))))))))...)))))))) | 55.2 |
| CGACGTGCTGAATGTGCTG+CAGCACATGCGGCACGTCG ((((((((.(.((((((((+)))))))).).)))))))) | 55.3 |
| CGACGTGCTGAATGTGCTG+CAGCACATGGCGCACGTCG ((((((((...((((((((+))))))))...)))))))) | 52.3 |
| CGACGTGCTGAATGTGCTG+CAGCACATGGTGCACGTCG ((((((((...((((((((+))))))))...)))))))) | 50.9 |
| CGACGTGCTGAATGTGCTG+CAGCACATGTCGCACGTCG ((((((((...((((((((+))))))))...)))))))) | 52.1 |
| CGACGTGCTGAATGTGCTG+CAGCACATTACGCACGTCG ((((((((..(((((((((+)))))))))..)))))))) | 52.7 |
| CGACGTGCTGAATGTGCTG+CAGCACATTCGGCACGTCG ((((((((.((((((((((+)))))))))).)))))))) | 60.6 |
| CGACGTGCTGAATGTGCTG+CAGCACATTGAGCACGTCG (((((((((.(((((((((+))))))))).))))))))) | 56.6 |
| CGACGTGCTGAATGTGCTG+CAGCACATTGGGCACGTCG ((((((((..(((((((((+)))))))))..)))))))) | 53.8 |
| CGACGTGCTGAATGTGCTG+CAGCACATTTCGCACGTCG ((((((((..(((((((((+)))))))))..)))))))) | 53.1 |
| CGACGTGCTGCATGTGCTG+CAGCACATAATGCACGTCG ((((((((...((((((((+))))))))...)))))))) | 50.7 |

| Substance | Tm [°C] |
| --- | --- |
| CGACGTGCTGCATGTGCTG+CAGCACATACAGCACGTCG ((((((((((.((((((((+)))))))).)))))))))) | 58.2 |
| CGACGTGCTGCATGTGCTG+CAGCACATACGGCACGTCG ((((((((.(.((((((((+)))))))).).)))))))) | 53.6 |
| CGACGTGCTGCATGTGCTG+CAGCACATACTGCACGTCG ((((((((.(.((((((((+)))))))).).)))))))) | 53 |
| CGACGTGCTGCATGTGCTG+CAGCACATCCCGCACGTCG ((((((((.(.((((((((+)))))))).).)))))))) | 49.9 |
| CGACGTGCTGCATGTGCTG+CAGCACATCCGGCACGTCG ((((((((.(.((((((((+)))))))).).)))))))) | 51.9 |
| CGACGTGCTGCATGTGCTG+CAGCACATCTAGCACGTCG (((((((((..((((((((+))))))))..))))))))) | 52.4 |
| CGACGTGCTGCATGTGCTG+CAGCACATCTCGCACGTCG ((((((((...((((((((+))))))))...)))))))) | 49.2 |
| CGACGTGCTGCATGTGCTG+CAGCACATGAGGCACGTCG ((((((((..(((((((((+)))))))))..)))))))) | 56.8 |
| CGACGTGCTGCATGTGCTG+CAGCACATGCGGCACGTCG ((((((((.((((((((((+)))))))))).)))))))) | 63 |
| CGACGTGCTGCATGTGCTG+CAGCACATGGAGCACGTCG (((((((((.(((((((((+))))))))).))))))))) | 61.2 |
| CGACGTGCTGCATGTGCTG+CAGCACATTACGCACGTCG ((((((((...((((((((+))))))))...)))))))) | 48.2 |
| CGACGTGCTGCATGTGCTG+CAGCACATTCAGCACGTCG ((((((((((.((((((((+)))))))).)))))))))) | 57 |
| CGACGTGCTGCATGTGCTG+CAGCACATTCCGCACGTCG ((((((((.(.((((((((+)))))))).).)))))))) | 49.3 |
| CGACGTGCTGCATGTGCTG+CAGCACATTCGGCACGTCG ((((((((.(.((((((((+)))))))).).)))))))) | 53.2 |
| CGACGTGCTGCATGTGCTG+CAGCACATTCTGCACGTCG ((((((((.(.((((((((+)))))))).).)))))))) | 51.8 |
| CGACGTGCTGCATGTGCTG+CAGCACATTGAGCACGTCG (((((((((..((((((((+))))))))..))))))))) | 52.2 |
| CGACGTGCTGCATGTGCTG+CAGCACATTGCGCACGTCG ((((((((...((((((((+))))))))...)))))))) | 53.5 |
| CGACGTGCTGCATGTGCTG+CAGCACATTGGGCACGTCG ((((((((...((((((((+))))))))...)))))))) | 50.1 |
| CGACGTGCTGCATGTGCTG+CAGCACATTTAGCACGTCG (((((((((..((((((((+))))))))..))))))))) | 51 |
| CGACGTGCTGGATGTGCTG+CAGCACATAATGCACGTCG ((((((((...((((((((+))))))))...)))))))) | 50.7 |
| CGACGTGCTGGATGTGCTG+CAGCACATACTGCACGTCG ((((((((.(.((((((((+)))))))).).)))))))) | 56.3 |
| CGACGTGCTGGATGTGCTG+CAGCACATAGCGCACGTCG ((((((((...((((((((+))))))))...)))))))) | 49.3 |
| CGACGTGCTGGATGTGCTG+CAGCACATAGTGCACGTCG ((((((((...((((((((+))))))))...)))))))) | 45 |
| CGACGTGCTGGATGTGCTG+CAGCACATCCGGCACGTCG ((((((((.((((((((((+)))))))))).)))))))) | 62.9 |
